Measurements as given in US20240383993A1 (LANOVA MEDICINES, published 2024).

T1: His-tagged cynomolgus 4-1BB protein (cynomolgus, UniProt A9YYE7 24-186)
T1 construct: Coated on ELISA plates at 2 µg/ml; also called Cyno 4-1BB; soluble cynomolgus 4-1BB; not shown: His tag
T1 sequence: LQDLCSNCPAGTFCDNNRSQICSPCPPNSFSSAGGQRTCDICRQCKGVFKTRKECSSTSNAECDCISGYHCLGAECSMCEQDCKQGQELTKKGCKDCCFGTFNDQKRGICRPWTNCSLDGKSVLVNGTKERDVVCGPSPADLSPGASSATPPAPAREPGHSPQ


Key:
[1] = molecular target: T2, human 4-1BB expressed on cells (human, UniProt Q07011 24-255); assay: flow cytometry competition with biotinylated human 4-1BB ligand on CHO-K1/human 4-1BB cells
T2 construct: whole, on cells; also called CHO-K1/hu4-1BB; cell surface human 4-1BB
Experimental: CHO-K1 cells overexpressing human 4-1BB were incubated with biotinylated human 4-1BB ligand (0.3 μg/ml) in the presence of serial diluted anti-41BB nanobodies for 1 h at 4° C. with Ref mAb as the reference antibody. Then, cells were incubated with Alexa Fluor 633-conjugated streptavidin. Binding was measured with an Agilent flow cytometer. As shown in FIG. 2 and Table 3, all of the tested nanobodies could block 4-1BB ligand binding to 4-1BB in a concentration-dependent manner while Ref mAb had no such effect.

[2] = molecular target: T3, His-tagged human 4-1BB protein (human, UniProt Q07011 24-186); assay: ELISA, coated His-tagged 4-1BB, anti-human IgG-HRP
T3 construct: Coated on ELISA plates at 2 µg/ml; also called hu4-1BB; soluble human 4-1BB; not shown: His tag
Experimental: (§1) His-tagged 4-1BB was coated at 2 μg/ml overnight and then blocked by 2% BSA in PBS. Serially diluted anti-4-1BB nanobodies were incubated with the coated antigen for 1h at room temperature with a reference antibody “Ref mAb”. The resulting plates were washed with PBS/T and incubated with goat anti-human IgG-HRP for 1 h at room temperature. The plates were developed with TMB substrate and analyzed by spectrophotometer at OD 450 nm.

[3] = molecular target: T1, His-tagged cynomolgus 4-1BB protein; assay: ELISA, coated His-tagged 4-1BB, anti-human IgG-HRP
Experimental: as §1

[4] = molecular target: T2, human 4-1BB expressed on cells; assay: cell-based or functional assay

T2 sequence (Q07011 24-255): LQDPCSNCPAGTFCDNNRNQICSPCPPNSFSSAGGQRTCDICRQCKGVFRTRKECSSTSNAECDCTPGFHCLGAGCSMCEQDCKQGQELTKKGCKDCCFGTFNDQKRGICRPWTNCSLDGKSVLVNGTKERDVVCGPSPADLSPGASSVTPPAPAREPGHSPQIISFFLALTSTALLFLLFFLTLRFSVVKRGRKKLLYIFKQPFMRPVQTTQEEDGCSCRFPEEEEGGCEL

| Binder | IC50 [1] [nM] | EC50 [2] [nM] | EC50 [3] [nM] | EC50 (nM) in Jurkat-41BB NFκB reporter assay [4] [nM] |
| --- | --- | --- | --- | --- |
| VV02-1LP-238 (Fc fusion, not shown: a dimerising Fc or GST; small tags and cut ends, Llama nanobody tested as fusion with human IgG1 Fc (N297A)) VHH: QVQLVESGGGLVQAGGALRLSCAASGFTLDYSAIGWFRQAPGKEREGVLCISSSGDVTIYADSVKGRFTISRDNAKNTVYLQMNSLKPEDTAVYYCVAPRICSTYSSDDYWGQGTQVTVSS | 1.88 | 9.12 | 26.5 | 0.008 |
| VV02-1LP-422 (Fc fusion, not shown: a dimerising Fc or GST; small tags and cut ends, Llama nanobody tested as fusion with human IgG1 Fc (N297A)) VHH: QLQLVESGGGLVQPGGSLRLSCAASGFTLADYAIGWFRQAPGKEREGVLCISSSGDVTIYADSVKGRFTISRDNAKNTVYLQMNSLKPEDTAVYYCVAPRICSTYSSDDYWGQGTQVTVSS | 1.48 | 0.37 | 6.94 | 0.013 |
| VV02-1SP (1)-168 (Fc fusion, not shown: a dimerising Fc or GST; small tags and cut ends, Llama nanobody tested as fusion with human IgG1 Fc (N297A)) VHH: QVQLVESGGGLVQPGGSLRLSCAASGFTFSSYAMSWARQAPGKDFEWVSYIYSDGNTYYADSVKGRFTISRDNAKNTVYLQMNSLKPEDTAVYYCATWHTLRVGVWDEYDYWGQGTQVTVSS | 0.387 | > 30 | 0.06 | 0.002 |
| VV02-1LP-263 (Fc fusion, Llama nanobody tested as fusion with human IgG1 Fc (N297A); not shown: Human IgG1 Fc fragment with N297A, fused at the C-terminus of the VHH) VHH: EVQLVESGGGLVQPGGSLRLSCAASGFTFSSSAMSWARQTPGKGFEWVSGIYSDGSTYYTDSVKDRFTISRDNAKNTVYLQMNSLKPEDTAVYYCATWGTLRFGVWAEYDHWGQGTQVTVSS | 0.566 | > 30 | 0.04 | 0.017 |
